{"source": "the supplement of paper PMC12458215", "note": "± gives the uncertainty stated by the source.", "data": [{"system": "HEK293T", "experiment": "plasma membrane surface immunostaining intensity (anti-HA, deep receptor scanning) (arbitrary fluorescence units); higher = higher plasma membrane expression", "settings": "GPCR class: A", "values": [{"sequence": "MDSTIPVLGTELTPINGREETPCYKQTLSFTGLTCIVSLVALTGNAVVLWLLGCRMRRNAVSIYILNLVAADFLFLSGHIICSPLRLINIRHPISKILSPVMTFPYFIGLSMLSAISTERCLSILWPIWYHCRRPRYLSSVMCVLLWALSLLRSILEWMFCDFLFSGANSVWCETSDFITIAWLVFLCVVLCGSSLVLLVRILCGSRKMPLTRLYVTILLTVLVFLLCGLPFGIQWALFSRIHLDWKVLFCHVHLVSIFLSALNSSANPIIYFFVGSFRQRQNRQNLKLVLQRALQDTPEVDEGGGWLPQETLELSGSRLEQ [MRGPRX3]", "plasma membrane surface immunostaining intensity": "135 ± 14"}, {"sequence": "MDTGPDQSYFSGNHWFVFSVYLLTFLVGLPLNLLALVVFVGKLQRRPVAVDVLLLNLTASDLLLLLFLPFRMVEAANGMHWPLPFILCPLSGFIFFTTIYLTALFLAAVSIERFLSVAHPLWYKTRPRLGQAGLVSVACWLLASAHCSVVYVIEFSGDISHSQGTNGTCYLEFRKDQLAILLPVRLEMAVVLFVVPLIITSYCYSRLVWILGRGGSHRRQRRVAGLLAATLLNFLVCFGPYNVSHVVGYICGESPAWRIYVTLLSTLNSCVDPFVYYFSSSGFQADFHELLRRLCGLWGQWQQESSMELKEQKGGEEQRADRPAERKTSEHSQGCGTGGQVACAES [FFAR3]", "plasma membrane surface immunostaining intensity": "6440 ± 110"}, {"sequence": "MDTGPDQSYFSGNHWFVFSVYLLTFLVGLPLNLLALVVFVGKLRCRPVAVDVLLLNLTASDLLLLLFLPFRMVEAANGMHWPLPFILCPLSGFIFFTTIYLTALFLAAVSIERFLSVAHPLWYKTRPRLGQAGLVSVACWLLASAHCSVVYVIEFSGDISHSQGTNGTCYLEFRKDQLAILLPVRLEMAVVLFVVPLIITSYCYSRLVWILGRGGSHRRQRRVAGLVAATLLNFLVCFGPYNVSHVVGYICGESPVWRIYVTLLSTLNSCVDPFVYYFSSSGFQADFHELLRRLCGLWGQWQQESSMELKEQKGGEEQRADRPAERKTSEHSQGCGTGGQVACAEN [GPR42]", "plasma membrane surface immunostaining intensity": "798 ± 40"}, {"sequence": "MDTSRLGVLLSLPVLLQLATGGSSPRSGVLLRGCPTHCHCEPDGRMLLRVDCSDLGLSELPSNLSVFTSYLDLSMNNISQLLPNPLPSLRFLEELRLAGNALTYIPKGAFTGLYSLKVLMLQNNQLRHVPTEALQNLRSLQSLRLDANHISYVPPSCFSGLHSLRHLWLDDNALTEIPVQAFRSLSALQAMTLALNKIHHIPDYAFGNLSSLVVLHLHNNRIHSLGKKCFDGLHSLETLDLNYNNLDEFPTAIRTLSNLKELGFHSNNIRSIPEKAFVGNPSLITIHFYDNPIQFVGRSAFQHLPELRTLTLNGASQITEFPDLTGTANLESLTLTGAQISSLPQTVCNQLPNLQVLDLSYNLLEDLPSFSVCQKLQKIDLRHNEIYEIKVDTFQQLLSLRSLNLAWNKIAIIHPNAFSTLPSLIKLDLSSNLLSSFPITGLHGLTHLKLTGNHALQSLISSENFPELKVIEMPYAYQCCAFGVCENAYKISNQWNKGDNSSMDDLHKKDAGMFQAQDERDLEDFLLDFEEDLKALHSVQCSPSPGPFKPCEHLLDGWLIRIGVWTIAVLALTCNALVTSTVFRSPLYISPIKLLIGVIAAVNMLTGVSSAVLAGVDAFTFGSFARHGAWWENGVGCHVIGFLSIFASESSVFLLTLAALERGFSVKYSAKFETKAPFSSLKVIILLCALLALTMAAVPLLGGSKYGASPLCLPLPFGEPSTMGYMVALILLNSLCFLMMTIAYTKLYCNLDKGDLENIWDCSMVKHIALLLFTNCILNCPVAFLSFSSLINLTFISPEVIKFILLVVVPLPACLNPLLYILFNPHFKEDLVSLRKQTYVWTRSKHPSLMSINSDDVEKQSCDSTQALVTFTSSSITYDLPPSSVPSPAYPVTESCHLSSVAFVPCL [LGR5]", "plasma membrane surface immunostaining intensity": "283 ± 25"}, {"sequence": "MDVLSPGQGNNTTSPPAPFETGGNTTGISDVTVSYQVITSLLLGTLIFCAVLGNACVVAAIALERSLQNVANYLIGSLAVTDLMVSVLVLPMAALYQVLNKWTLGQVTCDLFIALDVLCCTSSILHLCAIALDRYWAITDPIDYVNKRTPRRAAALISLTWLIGFLISIPPMLGWRTPEDRSDPDACTISKDHGYTIYSTFGAFYIPLLLMLVLYGRIFRAARFRIRKTVKKVEKTGADTRHGASPAPQPKKSVNGESGSRNWRLGVESKAGGALCANGAVRQGDDGAALEVIEVHRVGNSKEHLPLPSEAGPTPCAPASFERKNERNAEAKRKMALARERKTVKTLGIIMGTFILCWLPFFIVALVLPFCESSCHMPTLLGAIINWLGYSNSLLNPVIYAYFNKDFQNAFKKIIKCKFCRQ [HTR1A]", "plasma membrane surface immunostaining intensity": "5670 ± 440"}, {"sequence": "MDVVDSLLVNGSNITPPCELGLENETLFCLDQPRPSKEWQPAVQILLYSLIFLLSVLGNTLVITVLIRNKRMRTVTNIFLLSLAVSDLMLCLFCMPFNLIPNLLKDFIFGSAVCKTTTYFMGTSVSVSTFNLVAISLERYGAICKPLQSRVWQTKSHALKVIAATWCLSFTIMTPYPIYSNLVPFTKNNNQTANMCRFLLPNDVMQQSWHTFLLLILFLIPGIVMMVAYGLISLELYQGIKFEASQKKSAKERKPSTTSSGKYEDSDGCYLQKTRPPRKLELRQLSTGSSSRANRIRSNSSAANLMAKKRVIRMLIVIVVLFFLCWMPIFSANAWRAYDTASAERRLSGTPISFILLLSYTSSCVNPIIYCFMNKRFRLGFMATFPCCPNPGPPGARGEVGEEEEGGTTGASLSRFSYSHMSASVPPQ [CCKAR]", "plasma membrane surface immunostaining intensity": "6447 ± 43"}]}, {"system": "HEK293T", "experiment": "plasma membrane surface immunostaining intensity (anti-HA, deep receptor scanning) (arbitrary fluorescence units); higher = higher plasma membrane expression", "settings": "GPCR class: A (Olfactory)", "values": [{"sequence": "MDTGNWSQVAEFIILGFPHLQGVQIYLFLLLLLIYLMTVLGNLLIFLVVCLDSRLHTPMYHFVSILSFSELGYTAATIPKMLANLLSEKKTISFSGCLLQIYFFHSLGATECYLLTAMAYDRYLAICRPLHYPTLMTPTLCAEIAIGCWLGGLAGPVVEISLISRLPFCGPNRIQHVFCDFPPVLSLACTDTSINVLVDFVINSCKILATFLLILCSYVQIICTVLRIPSAAGKRKAISTCASHFTVVLIFYGSILSMYVQLKKSYSLDYDQALAVVYSVLTPFLNPFIYSLRNKEIKEAVRRQLKRIGILA [OR6N1]", "plasma membrane surface immunostaining intensity": "347 ± 130"}, {"sequence": "MEAANESSEGISFVLLGLTTSPGQQRPLFVLFLLLYVASLLGNGLIVAAIQASPALHAPMYFLLAHLSFADLCFASVTVPKMLANLLAHDHSISLAGCLTQMYFFFALGVTDSCLLAAMAYDCYVAIRHPLPYATRMSRAMCAALVGMAWLVSHVHSLLYILLMARLSFCASHQVPHFFCDHQPLLRLSCSDTHHIQLLIFTEGAAVVVTPFLLILASYGAIAAAVLQLPSASGRLRAVSTCGSHLAVVSLFYGTVIAVYFQATSRREAEWGRVATVMYTVVTPMLNPIIYSLWNRDVQGALRALLIGRRISASDS [OR1K1]", "plasma membrane surface immunostaining intensity": "223 ± 69"}, {"sequence": "MEAENLTELSKFLLLGLSDDPELQPVLFGLFLSMYLVTVLGNLLIILAVSSDSHLHTPMYFFLSNLSFVDICFISTTVPKMLVSIQARSKDISYMGCLTQVYFLMMFAGMDTFLLAVMAYDRFVAICHPLHYTVIMNPCLCGLLVLASWFIIFWFSLVHILLMKRLTFSTGTEIPHFFCEPAQVLKVACSNTLLNNIVLYVATALLGVFPVAGILFSYSQIVSSLMGMSSTKGKYKAFSTCGSHLCVVSLFYGTGLGVYLSSAVTHSSQSSSTASVMYAMVTPMLNPFIYSLRNKDVKGALERLLSRADSCP [OR7D4]", "plasma membrane surface immunostaining intensity": "157 ± 48"}, {"sequence": "MEAGNQTGFLEFILLGLSEDPELQPFIFGLFLSMYLVTVLGNLLIILAISSDSHLHTPMYFFLSNLSWVDICFSTCIVPKMLVNIQTENKAISYMDCLTQVYFSMFFPILDTLLLTVMAYDRFVAVCHPLHYMIIMNPHLCGLLVFVTWLIGVMTSLLHISLMMHLIFCKDFEIPHFFCELTYILQLACSDTFLNSTLIYFMTGVLGVFPLLGIIFSYSRIASSIRKMSSSGGKQKALSTCGSHLSVVSLFYGTGIGVHFTSAVTHSSQKISVASVMYTVVTPMLNPFIYSLRNKDVKGALGSLLSRAASCL [OR7D2]", "plasma membrane surface immunostaining intensity": "118 ± 23"}, {"sequence": "MEARNQTAISKFLLLGLIEDPELQPVLFSLFLSMYLVTILGNLLILLAVISDSHLHTPMYFFLSNLSFLDICLSTTTIPKMLVNIQAQNRSITYSGCLTQICFVLFFAGLENCLLAAMAYDRYVAICHPLRYTVIMNPRLCGLLILLSLLTSVVNALLLSLMVLRLSFCTDLEIPLFFCELAQVIQLTCSDTLINNILIYFAACIFGGVPLSGIILSYTQITSCVLRMPSASGKHKAVSTCGSHLSIVLLFYGAGLGVYISSVVTDSPRKTAVASVMYSVFPQMVNPFIYSLRNKDMKGTLRKFIGRIPSLLWCAICFGFRFLE [OR7G2]", "plasma membrane surface immunostaining intensity": "165 ± 53"}]}]}
